Experimental data taken from patent US20210324076A1 (AMPHIVENA THERAPEUTICS, published 2021).

Target: T1, human CD3 (human, UniProt P07766 23-207; P09693 23-182; P04234 22-171; P20963 22-164)
T1 construct: whole, on cells; also called hu CD3; CD3 on human T cells
Assay: flow cytometry titration on human CD3+ T cells/Jurkat, anti-His detection
Description: Cells were incubated with 100 μL of serial dilutions of CD33/CD3 2×2 T-cell engagers. After washing three times with FACS buffer the cells were incubated with 0.1 mL of […] mouse monoclonal anti-His antibody in the same buffer for 45 min on ice. After a second washing cycle, the cells were incubated with 0.1 mL of […] FITC-conjugated goat anti-mouse IgG antibodies under the same conditions as before. As a control, cells were incubated with the anti-His IgG followed by the FITC-conjugated goat anti-mouse IgG antibodies without anti-CD33 2×2 T-cell engagers. […] The fluorescence of 1×10⁴ living cells was measured using a Beckman-Coulter FC500 MPL flow cytometer using the MXP software (Beckman-Coulter, Krefeld, Germany) or a Millipore Guava EasyCyte flow cytometer using the Incyte software (Merck Millipore, Schwalbach, Germany). Mean fluorescence intensities of the cell samples were calculated using CXP software (Beckman-Coulter, Krefeld, Germany) or Incyte software (Merck Millipore, Schwalbach, Germany). After subtracting the fluorescence intensity values of the cells stained with the secondary and tertiary reagents alone the values were used for calculation of the KD values with the equation for one-site binding (hyperbola) of the GraphPad Prism (version 6.00 for Windows, GraphPad Software, La Jolla Calif. USA). […]

T1 sequence (P07766 23-207, chain 1 of 4): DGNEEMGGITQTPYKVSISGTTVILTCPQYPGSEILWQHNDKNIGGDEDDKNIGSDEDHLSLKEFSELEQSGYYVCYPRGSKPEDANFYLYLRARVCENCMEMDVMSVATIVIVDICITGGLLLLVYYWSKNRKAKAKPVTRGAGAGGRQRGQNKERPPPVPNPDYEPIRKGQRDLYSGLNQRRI
T1 sequence (P09693 23-182, chain 2 of 4): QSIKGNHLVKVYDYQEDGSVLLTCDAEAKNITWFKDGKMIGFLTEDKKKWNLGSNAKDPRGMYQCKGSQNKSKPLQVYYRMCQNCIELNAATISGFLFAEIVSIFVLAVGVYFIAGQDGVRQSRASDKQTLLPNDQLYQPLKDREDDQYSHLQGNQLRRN
T1 sequence (P04234 22-171, chain 3 of 4): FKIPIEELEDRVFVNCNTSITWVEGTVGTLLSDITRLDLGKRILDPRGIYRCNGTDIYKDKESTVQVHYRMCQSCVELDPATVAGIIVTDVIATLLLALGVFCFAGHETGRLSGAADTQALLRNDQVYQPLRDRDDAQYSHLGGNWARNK
T1 sequence (P20963 22-164, chain 4 of 4): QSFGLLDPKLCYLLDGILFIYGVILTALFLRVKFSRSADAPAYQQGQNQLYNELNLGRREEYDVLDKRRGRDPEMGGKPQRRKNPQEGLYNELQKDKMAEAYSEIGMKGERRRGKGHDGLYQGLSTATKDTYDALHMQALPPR

B1: CD33/CD3 2×2 T-cell engager 18 (bispecific antibody)
chain: EVQLVESGGGLVQPGGSLRLSCAASGFTFSTYAMNWVRQAPGKGLEWVGRIRSKYNNYATYYADSVKDRFTISRDDSKNSLYLQMNSLKTEDTAVYYCARHGNFGNSYVSYFAYWGQGTLVTVSSGGSGGSQSVLTQPPSVSGAPGQRVTISCTGSSSNIGAGYDVHWYQQLPGTAPKLLIYGNSNRPSGVPDRFSGSKSGTSASLAITGLQAEDEADYYCQSYDSSLSDVVFGGGTKLTVLGGSGQVQLVQSGAEVKKPGESLKISCKGSGYSFTSYWIGWVRQMPGKGLEWMGIIYPGDSDTRYSPSFQGQVTISADKSISTAYLQWSSLKASDTAMYYCARHKRGSDAFDIWGQGTTVTVSSGGSGGSDIQMTQSPSSLSASVGDRVTITCRSSTGAVTTSNYANWVQQKPGKAPKALIGGTNKRAPGVPSRFSGSLIGDKATLTISSLQPEDFATYYCALWYSNLWVFGQGTKVEIKAAAGSHHHHHH
notes: Homodimer; His-tagged form
  Kd: 11.9 nM
